# Publication doi:10.1101/619858
# Target: α-Synuclein (α-Syn), wild type (UniProt P37840)
substance,measurement,value
"α-Synuclein (α-Syn), wild type (from UniProt P37840 1-140) (natural protein)",percent of the protein as fibrils (day 5),2%
same,percent of the protein as oligomers (day 5),8%
